Experimental data as given in patent US6887705B1, “Tyrosine phosphorylated cleavage furrow-associated proteins (PSTPIPs)” (Genentech, Inc., priority 1997, dated 2005).

T1: PTP HSCF (Mus musculus, UniProt Q61152)
T1 construct: the PST (and C-terminal homolog) of PTP HSCF (amino acids 304-453); made in house; host or cells: E. coli DH5-alpha
T1 sequence (Q61152 304-453): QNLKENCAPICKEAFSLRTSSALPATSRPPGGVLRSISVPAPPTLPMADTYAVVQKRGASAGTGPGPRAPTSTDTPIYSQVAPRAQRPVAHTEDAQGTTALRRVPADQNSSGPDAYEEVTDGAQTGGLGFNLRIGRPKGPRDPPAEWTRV


Assays:
[1] = test system: PSTPIP tyrosine phosphorylation; assay: Tyrosine phosphorylation of PSTPIP in COS cells co-transfected with V-src; format: cell-based; conditions: COS cells expressing PSTPIP and V-src
Method: Baf3 cells were lysed in 1% Triton, 50 mM HEPES. 10% glycerol and 5 mM EDTA containing 1 μg/ml aprotinin, PMSF, leupeptin and pepstatin were 1 mM Sodium Vanadate and 10 mM Iodoacetic acid. Cells were treated with 0.1 mM Pervanadate for 4 hours before lysis. Immunoprecipitations were performed in the vanadate-containing lysis buffer using 1 μg/ml anti-PSTPIP polyclonal antibody and 400 μg of lysate protein at 4° C. overnight. Western blots were performed using 1 μg/ml affinity purified anti-PSTPIP or 1:5000 dilution of commercial 4G10 anti-phosphotyrosine monoclonal (Upstate Biotech). Signal was detected by HRPO-ECL reagents (Pierce). The C221-S mutant was as previously described (Cheng et al., (1996) supra). The PTP HSCF D197-A mutant was generated using PCR. Mutagenesis primer D197A.F ([…]) (SEQ ID NO:24), corresponding to nucleotide 591, and primer D197A.R ([…]) (SEQ ID NO:25) which corresponds to the stop codon, were used in PCR to generate a fragment that could be cut with Mscl and XbaI. pRK.HA.38 WT, a plasmid which encoded the wild type enzyme under the control of the cytomegalovirus promoter (Cheng et al., (1996) supra), was digested with Clal and Mscl and the resulting 600 bp fragment was ligated with the Mscl-Xbal PCR fragment into the Clal and Xbal sites of the pRK.tkneo. A plasmid encoding the V-src oncogene under the control of the SV40 early promoter was the kind gift of Dr. Art Levinson (CEO-Genetech, Inc.). NIH 3T3 cells and the COS-7 cells were cultured in high glucose DMEM supplemented with 10% FBS, 2 mM L-Glutamine, 10 mM HEPES pH 7.2 and pen-strep.
COS-7 cells were transfected by electroporation. Briefly, 1.5×10^6 COS-7 cells were mixed with 24 μg total DNA in PBS and electroporated at 960 μF, […] (Bio-Rad™ Gene Pulsar™). Following electroporation, cells were seeded in 10 cm dishes and incubated for 3 days. 10-cm dishes of transfected COS cells were washed twice with ice-cold PBS, and lysed in 1 ml of M-RIPA (50 mM Tris 7.4, 1% NP40, 0.25% DOC, 150 mM NaCl, 1 mM sodium ortho-vanadate, 1 mM NaF plus Complete™ Protease Inhibitors (Boehringer Mannheim)). Lysates were incubated for 15 minutes with 100 μl UltraLink Immobilized Protein A/G™ (Pierce) at 4° C., followed by centrifugation for 5 minutes. Supernatants were collected and stored at −70° C. or directly immunoprecipitated. 5 μg of M2 or 12CA5 was added to 500 μl of lysate and incubated overnight at 4° C. Ultralink Protein A/G™ was added and incubation continued for 2 hours at 4° C. The immune complexes were washed 3 times with M-RIPA. The proteins were subjected to SDS-PAGE and transferred to nitrocellulose in 1X Transfer Buffer™ (Novex). Immunoblots were blocked overnight at 4° C. in 3% milk/PBS. To detect Flag-tagged PIP, blots were incubated with 10 μg/ml Bio-M2 (Biotinylated anti-FLAG monoclonal Ab, KODAK) followed by incubation in 10 μg/ml streptavidin-HRP (UBI). To detect HA-tagged PTPhscf, blots were incubated in anti-(HA)-peroxidase (Boehringer Mannheim) as per manufacturer's instructions. To detect phosphotyrosine, blots were incubated in HRP-conjugated 4G10 (anti-phosphotyrosine monoclonal, UBI) as per manufacture's instructions.
COS cells were transfected with a constant amount of either the wild type of W232A mutant of PST PIP and cotransfected with increasing amounts of a plasmid encoding the v-Src tyrosine kinase (Spencer et al, (1997), supra). Plasmid concentrations were equalized with an empty vector containing the CMV promoter. After 48 hours, lysates were prepare and immunoprecipitated with anti-FLAG monoclonal antibody. Precipitates were run on SDS polyacrylamide gels, blotted, and probed with either anti-FLAG antibody or anti-phosphotyrosine antibody as previously described (Spencer et al, (1997), supra). Bound antibodies were visualized using enhanced chemiluminescent reagents.

CHO cells = assay: Confocal microscopy of PST PIP forms expressed in CHO cells; format: cell-based, Chinese hamster; conditions: transfected CHO cells
Method: Confocal microscopy was performed as previously described (Spencer et al, (1997), supra). Briefly, CHO cells in chamber slides were transfected using Lipofectamine and the indicated plasmids. 48 hours later, cells were fixed in formaldehyde and stained with an anti-FLAG epitope specific antibody (Kodak) and Fluorescein-Phalloidin (Molecular Probes). Anti-Flag stained cells were washed and stained with Cy3-conjugated sheep anti-mouse IgG. Stained cells were observed using Molecular Dynamics Confocal Microscope™ (2001) and analyzed with ImageSpace™ software (Molecular Dynamics).

PTP HSCF = molecular target: T1, PTP HSCF; assay: In vitro GST pull-down binding of PST PIP forms to PTP HSCF; conditions: in vitro
Method: The binding was carried out according to the method of Wong and Johnson (Wong et al., J. Biol. Chem. 271(35):20981-20984 (1996)). Briefly, 1 μg of plasmid with either the PSTPIP protein or PTP HSCF under the control of the Sp6 promoter was in vitro transcribed/translated using the Promega™ TnT Rabbit Reticulocyte™ system. Samples were diluted in 50 mM HEPES, pH 7.2, 1% triton X 100, 10% glycerol, 100 mM NaCl, 5 mM EDTA and 2 μg/ml each of leupeptin, pepstatin, aprotinin, and PMSF. […] This was reacted for 1 hour at 4° C. and then the resin washed 6 times in HEPES/Triton binding buffer before SDS gel electrophoresis. The peptides were synthesized on an automated Milligen 9050 Peptide Synthesizer using standard solid phase chemistry with FMOC protected amino acids on a p-alkoxybenzyl alcohol resin. Dried peptides were re-suspended in the HEPES/Triton Binding buffer at a concentration of 10 mg/ml. Peptide inhibition was performed by adding the peptide first to the in vitro translation product and then the GST-fusion followed by the GSH-Sepharose. The binding/washing steps were as previously described. The peptides synthesized and the PTPs they were derived from were: • PXXP-HSCF: 432[…]451 (PTP HSCF) (SEQ ID NO:20), • PXXP-PEP: 782GFGNRFSKPKGPRNPPSAW800 (PTP PEP) (SEQ ID NO:21), • PXXP-PEST: 761[…]780 (PTP PEST) SEQ ID NO:22), • PXXP-CONTROL: 334[…]353 (PTP HSCF) (SEQ ID NO:23).
In vitro binding analyses between various PTP HSCF and PST PIP constructs were performed as previously described (Spencer et al, (1997), supra). Briefly, plasmids were transcribed and translated in vitro using the TnT Rabbit Reticulocyte Lysate System (Promega). Samples were diluted in 50 mM HEPES, pH 7.2, 1% triton X-100, 10% glycerol, 100 mM NaCl, and 2 μg/ml each of leupeptin, pepstatin, aprotinin and PMSF (lysis buffer). Samples were than reacted with GST fusion proteins at various concentrations, and the bound proteins were centrifuged using glutathione-sepharose beads and analyzed on SDS polyacrylamide gels. C-terminally-derived peptide inhibition studies were performed by incubating the GST fusion protein binding reactions in the presence of 10 μg/ml of the indicated peptides. Peptides were produced by FMOC-protected amino acids as previously described (Spencer et al, (1997), supra). In vivo interactions between various forms of PTP HSCF and PST PIP were also performed as previously described (Spencer et al, (1997), supra). Briefly, COS cells were transfected with various constructs, and after 48 hours, lysates were prepared and immunoprecipitated with antibodies to either the FLAG epitope contained at the C-terminus of PST PIP or an HA epitope contained at the N-terminus of PTP HSCF. The resultant blots were probed with anti-FLAG to detect PST PIP, anti-HA to detect PTP HSCF or anti-phosphotyrosine to detect levels of this modified amino acid in each protein.

| Molecule | level of tyrosine phosphate on PSTPIP on cotransfection of PTP HSCF forms [1] | cellular localization of PST PIP forms (assay for correct folding) (CHO cells) | binding of in vitro translated PST PIP forms to GST fusion of C-terminal 149 amino acids of PTP HSCF (PTP HSCF) |
| --- | --- | --- | --- |
| D197-A: dominant negative PTP HSCF, active site aspartate mutated to alanine (protein, UniProt Q99952 1-460, looked up, variant D197A) Tyrosine-protein phosphatase …: MSRSLDSARSFLERLEARGGREGAVLAGEFSDIQACSAAWKADGVCSTVAGSRPENVRKNRYKDVLPYDQTRVILSLLQEEGHSDYINGNFIRGVDGSLAYIATQGPLPHTLLDFWRLVWEFGVKVILMACREIENGRKRCERYWAQEQEPLQTGLFCITLIKEKWLNEDIMLRTLKVTFQKESRSVYQLQYMSWPARGVPSSPDHMLAMVEEARRLQGSGPEPLCVHCSAGCGRTGVLCTVDYVRQLLLTQMIPPDFSLFDVVLKMRKQRPAAVQTEEQYRFLYHTVAQMFCSTLQNASPHYQNIKENCAPLYDDALFLRTPQALLAIPRPPGGVLRSISVPGSPGHAMADTYAVVQKRGAPAGAGSGTQTGTGTGTGARSAEEAPLYSKVTPRAQRPGAHAEDARGTLPGRVPADQSPAGSGAYEDVAGGAQTGGLGFNLRIGRPKGPRDPPAEWTRV | slightly more efficient dominant negative protein |  |  |
| delta 50: PST PIP missing the N-terminal 50 amino acids (protein) ERYGKELVQIARKAGGQTEMNSLRTSFDSLKQQTENVGSAHIQLALALREELRSLEEFRERQKEQRKKYEAIMDRVQKSKLSLYKKTMESKKAYDQKCRDADDAEQAFERVSANGHQKQVEKSQNKAKQCKESATEAERVYRQNIEQLERARTEWEQEHRTTCEAFQLQEFDRLTILRNALWVHCNQLSMQCVKDDELYEEVRLTLEGCDVEGDINGFIQSKSTGREPPAPVPYQNYYDREVTPLIGSPSIQPSCGVIKRFSGLLHGSPKTTPSAPAASTETLTPTPERNELVYASIEVQATQGNLNSSAQDYRALYDYTAQNSDELDISAGDILAVILEGEDGWWTVERNGQRGFVPGSYLEKLDYKDDDDK |  | formed large aggregates within the cytoplasm |  |
| wild type PTP HSCF: PEST-type protein tyrosine phosphatase PTP HSCF, wild type (protein, left off: small tags and cut ends) MSRHTDLVRSFLEQLEARDYREGAILAREFSDIKARSVAWKSEGVCSTKAGSRLGNTNKNRYKDVVAYDETRVILSLLQEEGHGDYINANFIRGIDGSQAYIATQGPLPHTLLDFWRLVWEFGVKVILMACQETENGRRKCERYWAREQEPLKAGPFCITLTKETTLNADITLRTLQVTFQKEFRSVHQLQYMSWPDHGVPSSSDHILTMVEEARCLQGLGPGPLCVHCSAGCGRTGVLCAVDYVRQLLLTQTIPPNFSLFQVVLEMRKQRPAAVQTEEQYRFLYHTVAQLFSRTLQDTSPHYQNLKENCAPICKEAFSLRTSSALPATSRPPGGVLRSISVPAPPTLPMADTYAVVQKRGASAGTGPGPRAPTSTDTPIYSQVAPRAQRPVAHTEDAQGTTALRRVPADQNSSGPDAYEEVTDGAQTGGLGFNLRIGRPKGPRDPPAEWTRV | decreased level of tyrosine phosphate |  |  |
| delta 75: PST PIP missing the N-terminal 75 amino acids (protein) SFDSLKQQTENVGSAHIQLALALREELRSLEEFRERQKEQRKKYEAIMDRVQKSKLSLYKKTMESKKAYDQKCRDADDAEQAFERVSANGHQKQVEKSQNKAKQCKESATEAERVYRQNIEQLERARTEWEQEHRTTCEAFQLQEFDRLTILRNALWVHCNQLSMQCVKDDELYEEVRLTLEGCDVEGDINGFIQSKSTGREPPAPVPYQNYYDREVTPLIGSPSIQPSCGVIKRFSGLLHGSPKTTPSAPAASTETLTPTPERNELVYASIEVQATQGNLNSSAQDYRALYDYTAQNSDELDISAGDILAVILEGEDGWWTVERNGQRGFVPGSYLEKLDYKDDDDK |  | formed large aggregates within the cytoplasm |  |
| delta 25: PST PIP missing the N-terminal 25 amino acids (protein) LQRLLDGRKMCKDVEELLRQRAQAEERYGKELVQIARKAGGQTEMNSLRTSFDSLKQQTENVGSAHIQLALALREELRSLEEFRERQKEQRKKYEAIMDRVQKSKLSLYKKTMESKKAYDQKCRDADDAEQAFERVSANGHQKQVEKSQNKAKQCKESATEAERVYRQNIEQLERARTEWEQEHRTTCEAFQLQEFDRLTILRNALWVHCNQLSMQCVKDDELYEEVRLTLEGCDVEGDINGFIQSKSTGREPPAPVPYQNYYDREVTPLIGSPSIQPSCGVIKRFSGLLHGSPKTTPSAPAASTETLTPTPERNELVYASIEVQATQGNLNSSAQDYRALYDYTAQNSDELDISAGDILAVILEGEDGWWTVERNGQRGFVPGSYLEKLDYKDDDDK |  | predominantly co-localized with the cortical actin cytoskeleton | capable of interacting |
